Target: CXC chemokine receptor 2 (CXCR2) (UniProt P25025)
Assay: cell-based or functional assay

Chain of UniProt P25025 (P25025 whole entry): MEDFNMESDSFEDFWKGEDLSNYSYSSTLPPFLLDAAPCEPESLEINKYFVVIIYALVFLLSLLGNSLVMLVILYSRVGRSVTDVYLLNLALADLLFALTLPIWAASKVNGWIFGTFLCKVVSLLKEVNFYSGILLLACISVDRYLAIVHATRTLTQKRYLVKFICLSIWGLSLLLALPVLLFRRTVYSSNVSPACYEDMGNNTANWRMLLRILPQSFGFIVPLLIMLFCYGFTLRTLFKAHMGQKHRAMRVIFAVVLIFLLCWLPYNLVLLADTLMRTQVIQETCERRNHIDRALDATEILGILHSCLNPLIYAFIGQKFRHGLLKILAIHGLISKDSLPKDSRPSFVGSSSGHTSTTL

| Substance | chemotactic response in Transwell migration assays [%] |
| --- | --- |
| IL-8 (from UniProt P10145 28-99) (ligand) | > 500 |
| UL146 (ligand) | > 500 |
